Among the data in patent US20140128319A1 are fold reduction of cross-binding relative to KP-insulin or wild-type insulin and Kd values, retold here.

Assay [1] concerns the target Type 1 IGF receptor (IGF-1R) (human) (UniProt P08069). Briefly: competitive displacement of 125I-labeled IGF-I; IGF-1R (FIG. 9B).
The target is the same in assay [2]. In words: competitive displacement of 125I-Tyr31-human IGF-I; human IGF-1R, Experiment 1. Background: Displacement assays read how much labelled ligand stays bound in the presence of the test substance.
The target is the same in assay [3]. Briefly: competitive displacement of 125I-Tyr31-human IGF-I; human IGF-1R, Experiment 2.

Sequence of Type 1 IGF receptor (IGF-1R) (human) (P08069 31-1367 limits assumed): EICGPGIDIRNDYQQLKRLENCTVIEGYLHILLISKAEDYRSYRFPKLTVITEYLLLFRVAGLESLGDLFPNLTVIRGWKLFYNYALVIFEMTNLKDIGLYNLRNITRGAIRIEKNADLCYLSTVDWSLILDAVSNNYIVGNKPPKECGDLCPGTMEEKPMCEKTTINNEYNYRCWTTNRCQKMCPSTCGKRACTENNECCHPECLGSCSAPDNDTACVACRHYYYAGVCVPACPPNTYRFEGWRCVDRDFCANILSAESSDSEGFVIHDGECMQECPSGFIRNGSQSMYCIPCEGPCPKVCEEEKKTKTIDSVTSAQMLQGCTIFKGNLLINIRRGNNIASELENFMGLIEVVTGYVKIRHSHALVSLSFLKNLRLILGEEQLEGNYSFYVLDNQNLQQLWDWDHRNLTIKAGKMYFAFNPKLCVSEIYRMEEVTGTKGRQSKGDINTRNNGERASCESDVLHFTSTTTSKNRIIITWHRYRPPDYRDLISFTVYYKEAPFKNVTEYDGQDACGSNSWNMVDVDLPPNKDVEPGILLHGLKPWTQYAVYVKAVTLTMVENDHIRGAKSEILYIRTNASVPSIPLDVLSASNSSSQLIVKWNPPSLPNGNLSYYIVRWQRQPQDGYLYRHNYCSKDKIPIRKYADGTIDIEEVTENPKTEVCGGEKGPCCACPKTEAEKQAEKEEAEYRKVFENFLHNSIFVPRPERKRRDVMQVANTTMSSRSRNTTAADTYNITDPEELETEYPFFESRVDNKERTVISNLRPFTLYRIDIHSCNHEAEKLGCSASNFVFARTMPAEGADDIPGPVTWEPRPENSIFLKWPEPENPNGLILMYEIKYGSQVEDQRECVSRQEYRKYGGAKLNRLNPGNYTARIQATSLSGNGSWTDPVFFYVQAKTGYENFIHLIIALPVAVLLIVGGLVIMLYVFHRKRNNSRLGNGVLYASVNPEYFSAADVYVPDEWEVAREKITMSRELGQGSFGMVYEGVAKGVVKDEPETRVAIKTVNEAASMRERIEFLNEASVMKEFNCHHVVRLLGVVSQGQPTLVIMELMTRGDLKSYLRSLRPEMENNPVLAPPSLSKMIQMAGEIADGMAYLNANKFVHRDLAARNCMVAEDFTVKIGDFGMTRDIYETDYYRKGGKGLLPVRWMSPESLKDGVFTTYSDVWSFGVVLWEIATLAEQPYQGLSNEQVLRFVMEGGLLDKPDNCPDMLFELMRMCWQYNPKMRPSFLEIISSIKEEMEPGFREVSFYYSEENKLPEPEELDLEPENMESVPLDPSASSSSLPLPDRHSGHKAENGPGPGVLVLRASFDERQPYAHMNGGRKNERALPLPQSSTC

In assay [1], “4Cl-Phe^B24-KP-insulin (ligand; para-monochloro-phenylalanine (4Cl-Phe) at B24; other documents disagree on this pair)” registered a fold reduction of cross-binding relative to KP-insulin or wild-type insulin of 3 fold.

What is called Kd is the equilibrium constant for the complex coming apart. Low values mean higher affinity, high ones lower affinity. Turning to “KP-insulin (ligand; other documents disagree on this pair)”, the figures for the Kd in assay [2] and in assay [3] were 12.6 nM and 15.3 nM, respectively.

“penta-fluoro-Phe^B24-KP-insulin (ligand; penta-fluoro-phenylalanine (F5-Phe) at B24; other documents disagree on this pair)” had a Kd in assay [2] of 522 nM.
